The values below come from patent publication US20210301005A1 (Genentech, published 2021).

Numbering of substitutions follows the chain as printed. Read-outs that look alike come from different tables or passages of the source.

The target in experiment [1] is T1, human TGFβ2, mature receptor-binding domain (human, UniProt P09858 303-414 (pig entry), The mature TGFβ2 is a disulfide-linked homodimer of this 112-residue chain. The 4A11 epitope spans both monomers (p-1207).).
T1 construct: Peprotech; also called TGFb2
T1 sequence: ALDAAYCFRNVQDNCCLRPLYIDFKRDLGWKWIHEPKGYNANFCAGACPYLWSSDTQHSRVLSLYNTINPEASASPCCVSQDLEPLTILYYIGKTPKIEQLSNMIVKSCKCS
Briefly: BIAcore T200.

In experiment [2] the target is T1, human TGFβ2, mature receptor-binding …. Briefly: cell-based or functional assay.
For experiment [3], the target named is T2, human TGFβ1, mature receptor-binding domain (human, UniProt P01137 279-390). Briefly: cell-based or functional assay.
The target of experiment [4] is T1, human TGFβ2, mature receptor-binding …. Briefly: cell-based or functional assay. The source holds these as a separate data set.
Experiment [5] concerns the target T3, human TGFβ3, mature dimeric form (human, UniProt P10600 301-412).
T3 sequence: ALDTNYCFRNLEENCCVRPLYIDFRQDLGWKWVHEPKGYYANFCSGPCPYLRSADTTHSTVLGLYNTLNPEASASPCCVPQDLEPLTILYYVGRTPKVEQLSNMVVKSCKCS
Briefly: cell-based or functional assay.

Experiment [6] concerns the target T1, human TGFβ2, mature receptor-binding …. Briefly: BIAcore T200. The source holds these as a separate data set. On the technique in general: SPR reads the build-up and loss of mass on a sensor chip optically.
For experiment [7] the target is unchanged. Briefly: BIAcore T200. The procedure:
(§1) For binding affinity determinations of all humanized 2A10 antibodies, Surface Plasmon Resonance (SPR) measurement with a BIAcore™-T200 instrument was used. Briefly, series S CM5 biosensor chip with protein A was first applied to capture each humanized 2A10 variant to achieve approximately 100 response units (RU) on each flow cell, following by injection of 3-fold serial dilutions of human TGFβ1, TGFβ2 or TGFβ3 (0.02 nM to 5 nM) in HBS-EP buffer (0.01M HEPES pH 7.4, 0.15M NaCl, 3 mM EDTA and 0.05% v/v surfactant P20) at 25° C. with a flow rate of 50 μl/min for kinetics measurement. Association rates (ko.) and dissociation rates (koff) were calculated using a simple one-to-one Langmuir binding model (BIAcore T200 evaluation software version 2.0) to determine the equilibrium dissociation constant (KD), which was calculated as the ratio koff/kₒₙ.
(§2) Binding affinity determinations of all humanized 4A11 antibodies were performed using SPR measurement with a BIAcore™-T200 instrument, as described above in Example 6 ([…]).
This is another data set of the same source.

Experiment [8] concerns the target T3, human TGFβ3, mature dimeric form. Nature of the experiment: BIAcore T200. The procedure:
as §1, §2

For experiment [9], the target named is T2, human TGFβ1, mature receptor-binding …. Briefly: cell-based or functional assay. This is another data set of the same source.
In experiment [10] the target is T1, human TGFβ2, mature receptor-binding …. Nature of the experiment: cell-based or functional assay. The source holds these as a separate data set.
Experiment [11] concerns the target T3, human TGFβ3, mature dimeric form. Nature of the experiment: cell-based or functional assay. The source holds these as a separate data set.
For experiment [12], the target named is T1, human TGFβ2, mature receptor-binding …. Briefly: BIAcore T200. As for the experimental part: as §1, §2
The source holds these as a separate data set.

The target in experiment [13] is T3, human TGFβ3, mature dimeric form. Nature of the experiment: BIAcore T200. The procedure:
as §1, §2
The source holds these as a separate data set.

Experiment [14] addresses T2, human TGFβ1, mature receptor-binding …. Briefly: cell-based or functional assay. This is another data set of the same source.
Experiment [15] concerns the target T1, human TGFβ2, mature receptor-binding …. Briefly: cell-based or functional assay. The source holds these as a separate data set.
The target of experiment [16] is T3, human TGFβ3, mature dimeric form. Briefly: cell-based or functional assay. The source holds these as a separate data set.
Experiment [17] shares this target. Nature of the experiment: BIAcore T200. This is another data set of the same source.
In experiment [18] the target is T1, human TGFβ2, mature receptor-binding …. Nature of the experiment: BIAcore T200. The procedure:
as §1
This is another data set of the same source.

The target of experiment [19] is T3, human TGFβ3, mature dimeric form. Briefly: BIAcore T200. The procedure: as §1
This is another data set of the same source.

The target is the same in experiment [20]. Nature of the experiment: cell-based or functional assay. This is another data set of the same source.
Experiment [21] concerns the target T2, human TGFβ1, mature receptor-binding …. Briefly: cell-based or functional assay. The source holds these as a separate data set.
In experiment [22] the target is T1, human TGFβ2, mature receptor-binding …. Nature of the experiment: cell-based or functional assay. The source holds these as a separate data set.
Experiment [23] concerns the target T3, human TGFβ3, mature dimeric form. Nature of the experiment: cell-based or functional assay. This is another data set of the same source.
In experiment [24] the target is T2, human TGFβ1, mature receptor-binding …. Briefly: cell-based or functional assay. This is another data set of the same source.
For experiment [25], the target named is T1, human TGFβ2, mature receptor-binding …. Briefly: cell-based or functional assay. The source holds these as a separate data set.
For experiment [26], the target named is T3, human TGFβ3, mature dimeric form. Nature of the experiment: cell-based or functional assay. This is another data set of the same source.

T2 sequence (P01137 279-390 limits assumed): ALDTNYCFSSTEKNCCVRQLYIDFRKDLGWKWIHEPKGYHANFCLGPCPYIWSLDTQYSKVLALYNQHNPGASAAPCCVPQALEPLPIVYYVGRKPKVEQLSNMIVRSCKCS

B1: h6F12.v4 (antibody, human IgG1, kappa, N297G, V domains shown)
VH: EVQLQESGPGLVKPSETLSLTCTVSGFSLTTYNVHWVRQPPGKGLEWMGLIWNTGGTRYNSALKSRLTISKDTSKSQVSLKLSSVTAADTAVYYCARDPVPNKWHFDFWGPGTLVTVSS
VL: EIVMTQSPATLSVSPGERATLSCLASEDIYSNLAWYQQKPGQSPRLLIYDARSLQDGVPARFSGSESGPEYTLTISSLQSEDFAVYFCQQHHAYPFTFGQGTKVEIKR
The term Kd denotes the concentration at which binding is half-saturated. A high value points to lower affinity. Turning to B1, the Kd in [1] is at most 0.5 pM. Moreover, the “fold drop in blocking against r6F12” value in [2] lay within 2.5 to 5 fold. The “HEKBlue TGFβ blocking IC50” value in experiment [3] is over 200000 pM; in [4], 20 pM; in experiment [5], over 200000 pM.

B2: h4A11.v7.13 (antibody, human IgG1, kappa, N297G, V domains shown)
VH: EQQLQESGPGLVKPSETLSLTCTVTGFSLSSYTVNWVRQPAGKGLEWIGYISYGGSAYYASWANGRFTISKDSSKNQFSLKLSSVTAADTAVYFCARHMQVGGAPTGSMAAFDPWGPGTLVTVSS
VL: EAVLTQSPGTLSLSPGERATLSCQSSQSVYNNNYLSWFQQKPGQPPRLLIYGASTLTSGVPDRFSGSGSGTDFTLTISRLEPEDFAVYYCAGGYSGSSDKYAFGGGTKVEIKR
Regarding B2, the “fold drop in binding against h4A11.v7” value in experiment [6] turned out to be 2.5 fold. Besides, the Kd in [7] turned out to be 15.9 pM; in [8], 8.9 pM. Besides, the “HEKBlue TGFβ blocking IC50” value is over 200000 pM in experiment [9], 30 pM in experiment [10] and 50 pM in [11].

B3: h4A11.v7.19 (antibody, human IgG1, kappa, N297G, V domains shown)
VH: EVQLQESGPGLVKPSETLSLTCTVTGFSLSSYTVNWIRQPAGKGLEWIGYISYGGSAYYASWANGRVTISKDTSQVSLKLSSVTAADTAVYFCARHMQVGGAPTGSMAAFDPWGQGTLVTVSS
VL: B2 VL with A2I, P45A, V60I
As to B3, the values for the Kd in experiment [12] and in [13] were 1 pM and at most 1.3 pM, respectively. Further, the figures for the “HEKBlue TGFβ blocking IC50” value in [14], in [15] and in [16] were over 200000 pM, 50 pM and 90 pM, respectively.

B4: h2A10.v2.5 (antibody, human IgG1, kappa, N297G, V domains shown)
VH: EVQLLESGGGLVQPGGSLRLSCAASGFDFNSYGMSWVRQAPGKGLEWVADIVSKTYNYTTYYSDSVKDRFTISRDDSKSTVYLQMNSLRAEDTAVYYCTVAPGGSFDYWGQGTLVTVSS
VL: DIQLTQSPSSLSASVGDRVTITCRASQSVSISRFNLMHWYQHKPGKQPKLLIYRASNLASGIPSRFSGSGSGTDFTLTISSLQPEDFATYYCQHSRESPWTFGGGTKVEIKR
Turning to B4, in experiment [17], the “fold drop in TGFβ3 binding against h2A10.v2” value amounted to 385 fold. Moreover, the figures for the Kd in experiment [18] and in experiment [19] were 2820 pM and 500 pM, respectively. For the same molecule, in experiment [20], the “fold loss of TGFβ3 blocking against h2A10.v2” value was over 10 fold. In addition, the results for the “HEKBlue TGFβ blocking IC50” value in experiment [21], in experiment [22] and in experiment [23] were over 200000 pM, over 200000 pM and 27400 pM, respectively.

B5: h2A10.v2.7 (antibody, human IgG1, kappa, N297G, V domains shown)
VH: B4 VH with W47L, D76N
VL: B4 VL
With B5, the dissociation constant Kd in experiment [18] was 921 pM; in [19], 3.2 pM. For the same molecule, the “fold loss of TGFβ3 blocking against h2A10.v2” value in [20] was over 10 fold. In addition, the “HEKBlue TGFβ blocking IC50” value was over 200000 pM in [21], over 200000 pM in [22] and 120 pM in experiment [23].

B6: h6F12.v1 (antibody, human IgG1, kappa, N297G, V domains shown)
VH: EVTLKESGPVLVKPTETLTLTCTVSGFSLTTYNVHWVRQPPGKALEWMGLIWNTGGTRYNSALKSRLTISKDTSKSQVVLTMTNMDPVDTATYYCARDPVPNKWHFDFWGPGTLVTVSS
VL: DIQMTQSPSTLSASVGDRVTITCLASEDIYSNLAWYQQKPGKSPKLLIYDARSLQDGVPSRFSGSESGPEYTLTISSLQPDDFATYFCQQHHAYPFTFGQGTKVEIKR
For B6, the Kd in experiment [1] is at most 0.5 pM. Moreover, the “fold drop in blocking against r6F12” value in experiment [2] lay in the range of 2.5 to 5 fold. For the same molecule, the “HEKBlue TGFβ blocking IC50” value in [3] was over 200000 pM; in [4], 20 pM; in experiment [5], over 200000 pM; in experiment [24] it was over 200000 pM; in experiment [25], 20 pM; in [26], over 200000 pM.

B7: h6F12.v3 (antibody, human IgG1, kappa, N297G, V domains shown)
VH: B6 VH
VL: B1 VL
B7 displayed a Kd in experiment [1] of at most 0.5 pM. Further, the entries for the “HEKBlue TGFβ blocking IC50” value in experiment [3], in [4] and in experiment [5] were over 200000 pM, 5 pM and over 200000 pM, respectively.

B8: h6F12.v2 (antibody, human IgG1, kappa, N297G, V domains shown)
VH: B1 VH
VL: B6 VL
In [1], B8 registered a dissociation constant Kd of at most 0.5 pM. Moreover, in [2], the “fold drop in blocking against r6F12” value lay in the range of 2.5 to 5 fold. Also, the “HEKBlue TGFβ blocking IC50” value in [3] is over 200000 pM; in experiment [4] it was 10 pM; in [5], over 200000 pM.
